The supplement of paper PMC12855868

B1: library; numbered along this chain (parent)
chain: MAAAGGARLLRAASAVLGGPAGRWLHHAGSRAGSSGLLRNRGPGGSAEASRSLSVSARARSSSEDKITVHFINRDGETLTTKGKVGDSLLDVVVENNLDIDGFGACEGTLACSTCHLIFEDHIYEKLDAITDEENDMLDLAYGLTDRSRLGCQICLTKSMDNMTVRVPETVADARQSIDVGKTS

Variants of: B1
Assay: scaled log2 fold change in cell abundance, elesclomol vs control (0 = silent mean, 1 = nonsense mean) (scaled log2 ratio); higher = higher viability under elesclomol (loss of FDX1 cuproptosis function)
Settings: glucose 10 mM
Method: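 Deep mutational scan of full-length human FDX1: a pooled saturation-mutagenesis ORF library (every residue 2-184 mutated to all 19 amino acids plus stop, and silent codons where available) was expressed by lentivirus in FDX1-knockout ABC1 (14 days) or HEK293T (11 days) cells grown with elesclomol (ES) or DMSO control. Variant abundance came from ORF sequencing. The log2 fold change (ES vs control, mean of duplicates) was centred on the silent-variant mean (0) and scaled to the nonsense-variant mean (1). Higher values mean greater viability under ES, i.e. loss of FDX1 function in cuproptosis.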

[1] = with ABC1 FDX1 KO, elesclomol 5 nM, 14 days
[2] = with HEK293T FDX1 KO, elesclomol 40 nM, 11 days
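Further: variant abundance is its share of total variant reads in each endpoint sample, from next-generation sequencing of the integrated ORF PCR-amplified out of genomic DNA.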

| Variant | scaled log2 fold change [1] | scaled log2 fold change [2] |
| --- | --- | --- |
| S63C | 0.302 | -0.446 |
| S63V | 0.189 | 0.0727 |
| S63H | 0.197 | 0.218 |
| S63R | 0.598 | -0.598 |
| S63N | -0.0613 | -0.00891 |
| S63T | 0.0678 | -0.0954 |
| S63M | 0.124 | -0.609 |
| S63A | 0.227 | 0.763 |
| S63F | 0.0355 | -0.0458 |
| S63Q | -0.105 | 0.797 |
| S63Y | 0.0691 | 0.7 |
| S63D | -0.272 | -0.143 |
| S63G | 0.283 | 0.000639 |
| S63K | 0.173 | -0.352 |
| S50T | 0.208 | – |
| S50Y | -0.231 | 0.499 |
| S50W | -0.149 | – |
| S61D | 1.01 | 1.93 |
| S61N | -0.737 | -0.556 |
| S61Y | 0.603 | 1.51 |
| S61K | -0.0816 | – |
| S61E | 0.468 | – |
| S61W | -0.113 | 0.846 |
| S61V | 0.78 | – |
| S61Q | 0.577 | – |

| Variant | scaled log2 fold change [1] | scaled log2 fold change [2] |
| --- | --- | --- |
| S61R | -0.524 | – |
| S61I | -0.527 | – |
| S61F | -0.102 | – |
| S61G | -0.405 | – |
| S61M | 0.184 | – |
| S54E | -0.297 | 0.751 |
| S54L | -0.261 | -0.248 |
| S54G | -0.1 | -0.00382 |
| S54V | -0.108 | -1.29 |
| S54P | 0.151 | -0.0299 |
| S54Q | 0.175 | 1.12 |
| S54M | -0.399 | 0.147 |
| S54W | 0.208 | -0.341 |
| S54R | 0.322 | -0.406 |
| S54T | 0.484 | -0.46 |
| S54Y | -0.0125 | -0.0955 |
| S54A | 0.19 | -0.116 |
| S54K | -0.175 | -1 |
| S54F | 0.138 | 0.0641 |
| S54C | -0.019 | -0.176 |
| S54D | -0.0274 | -0.0231 |
| S54H | -0.807 | – |
| S54I | 0.459 | – |
| S54N | -0.135 | -0.939 |
| A59F | 0.319 | -0.721 |

| Variant | scaled log2 fold change [1] | scaled log2 fold change [2] |
| --- | --- | --- |
| A59I | 0.202 | 0.473 |
| A59Q | 0.564 | -0.702 |
| A59M | -0.0959 | -0.108 |
| A59K | -0.0687 | -0.733 |
| A59Y | 0.0878 | -0.306 |
| A59R | -0.761 | -0.456 |
| A59V | -0.507 | 0.0474 |
| A59G | -0.424 | -0.916 |
| A59P | -0.0792 | – |
| A59W | 0.216 | 0.283 |
| A59N | -0.132 | 0.117 |
| A59C | -0.665 | 0.732 |
| A59E | -0.245 | 0.171 |
| A59D | -0.0282 | 0.274 |
| A59L | -0.434 | 0.562 |
| A59S | 0.217 | 0.732 |
| A59T | 0.332 | -0.0311 |
| A59H | -0.614 | – |
| R51W | 0.239 | 1.75 |
| R51M | -0.235 | – |
| R51Q | -1.02 | -0.603 |
| R51E | -0.316 | -0.168 |
| R51H | -0.0671 | -0.14 |
| R51Y | 0.343 | -0.174 |
| R51K | -0.103 | -1.33 |

| Variant | scaled log2 fold change [1] | scaled log2 fold change [2] |
| --- | --- | --- |
| R51F | 0.269 | 0.664 |
| R51D | -0.0949 | -0.181 |
| R51G | 0.508 | -0.712 |
| R51A | 0.176 | -0.204 |
| R51T | 0.0589 | 0.546 |
| R51N | -0.079 | 1.03 |
| R51S | 0.00287 | -0.516 |
| R51V | -0.873 | -0.419 |
| R51P | 0.212 | – |
| R51L | 0.0529 | -0.247 |
| R51C | 0.374 | -0.169 |
| R60I | 0.0411 | – |
| R60E | -0.329 | 0.272 |
| R60L | 0.042 | -0.384 |
| R60V | 0.116 | – |
| R60P | -0.332 | 0.626 |
| R60N | -0.096 | 0.128 |
| R60C | 0.327 | -0.517 |
| R60Y | 0.215 | 0.0482 |
| R60S | 0.275 | 0.216 |
| R60T | -0.956 | -0.542 |
| R60W | -0.217 | 0.972 |
| R60M | -0.213 | 0.72 |
| R60A | 0.137 | – |
| R60F | 0.0888 | -0.201 |

| Variant | scaled log2 fold change [1] | scaled log2 fold change [2] |
| --- | --- | --- |
| R60G | -0.278 | -0.224 |
| R60Q | -0.0931 | -0.217 |
| R60K | -0.27 | – |
| R60H | -0.288 | -0.116 |
| S52P | -0.128 | – |
| S52N | -0.0586 | -0.095 |
| S52L | 0.253 | -0.651 |
| S52F | 0.556 | – |
| S52V | -0.785 | -0.177 |
| S52R | 0.143 | -1.18 |
| S52C | 0.431 | -0.0215 |
| S52M | 0.212 | -0.953 |
| S52D | 0.202 | 0.946 |
| S52H | -0.197 | 0.41 |
| S52K | 0.174 | -1.31 |
| S52W | 0.257 | -0.162 |
| S52G | 0.447 | -0.133 |
| S52I | -0.0467 | -0.248 |
| S52A | 0.665 | 0.164 |
| S52Q | 0.212 | 1.17 |
| S52Y | 0.285 | 0.0679 |
| S52E | 0.648 | 0.0946 |
| S52T | -0.921 | -0.112 |
